# Assay results from IntAct's records for PubMed 35512704.
# B1: Mothers against decapentaplegic homolog 4 (Homo sapiens), Q13485 (parent)
# chain: MDNMSITNTPTSNDACLSIVHSLMCHRQGGESETFAKRAIESLVKKLKEKKDELDSLITAITTNGAHPSKCVTIQRTLDGRLQVAGRKGFPHVIYARLWRWPDLHKNELKHVKYCQYAFDLKCDSVCVNPYHYERVVSPGIDLSGLTLQSNAPSSMMVKDEYVHDFEGQPSLSTEGHSIQTIQHPPSNRASTETYSTPALLAPSESNATSTANFPNIPVASTSQPASILGGSHSEGLLQIASGPQPGQQQNGFTGQPATYHHNSTTTWTGSRTAPYTPNLPHHQNGHLQHHPPMPPHPGHYWPVHNELAFQPPISNHPAPEYWCSIAYFEMDVQVGETFKVPSSCPIVTVDGYVDPSGGDRFCLGQLSNVHRTEAIERARLHIGKGVQLECKGEGDVWVRCLSDHAVFVQSYYLDREAGRAPGDAVHKIYPSAYIKVFDLRQCHRQMQQQAATAQAAAAAQAAAVAGNIPGPGSVGGIAPAISLSAAAGIGVDDLRRLCILRMSFVKGWGPDYPRQSIKETPCWIEIHLHRALQLLDEVLHTMPIADPQPLD
# partner: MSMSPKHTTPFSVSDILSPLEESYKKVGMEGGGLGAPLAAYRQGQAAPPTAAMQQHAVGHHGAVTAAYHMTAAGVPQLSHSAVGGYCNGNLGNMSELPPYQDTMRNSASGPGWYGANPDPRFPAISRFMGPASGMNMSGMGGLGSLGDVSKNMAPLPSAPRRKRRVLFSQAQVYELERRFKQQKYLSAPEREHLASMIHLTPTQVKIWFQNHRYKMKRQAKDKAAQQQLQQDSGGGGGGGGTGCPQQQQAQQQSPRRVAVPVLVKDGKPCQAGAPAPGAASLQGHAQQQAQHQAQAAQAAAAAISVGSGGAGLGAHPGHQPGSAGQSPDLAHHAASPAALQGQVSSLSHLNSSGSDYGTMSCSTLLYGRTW
# B2: Mothers against decapentaplegic homolog 4 (Homo sapiens), Q13485 (parent)
# chain: B1 chain
# partner: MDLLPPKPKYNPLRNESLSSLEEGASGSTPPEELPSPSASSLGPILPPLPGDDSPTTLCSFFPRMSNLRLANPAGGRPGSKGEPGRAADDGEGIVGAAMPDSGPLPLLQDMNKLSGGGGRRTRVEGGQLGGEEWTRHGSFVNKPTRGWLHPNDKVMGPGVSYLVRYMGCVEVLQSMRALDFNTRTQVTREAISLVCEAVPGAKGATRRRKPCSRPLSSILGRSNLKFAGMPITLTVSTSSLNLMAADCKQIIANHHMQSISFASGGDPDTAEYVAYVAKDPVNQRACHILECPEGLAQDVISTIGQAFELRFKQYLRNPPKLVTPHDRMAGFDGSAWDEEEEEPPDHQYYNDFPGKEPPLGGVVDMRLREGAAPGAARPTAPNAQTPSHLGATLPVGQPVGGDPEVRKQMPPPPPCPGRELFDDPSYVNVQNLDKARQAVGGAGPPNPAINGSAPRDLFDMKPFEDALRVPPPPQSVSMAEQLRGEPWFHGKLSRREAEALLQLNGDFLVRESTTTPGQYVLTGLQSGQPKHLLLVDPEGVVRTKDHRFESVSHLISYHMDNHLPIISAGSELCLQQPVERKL
# B3: Mothers against decapentaplegic homolog 4 (Homo sapiens), Q13485 (parent)
# chain: B1 chain
# partner: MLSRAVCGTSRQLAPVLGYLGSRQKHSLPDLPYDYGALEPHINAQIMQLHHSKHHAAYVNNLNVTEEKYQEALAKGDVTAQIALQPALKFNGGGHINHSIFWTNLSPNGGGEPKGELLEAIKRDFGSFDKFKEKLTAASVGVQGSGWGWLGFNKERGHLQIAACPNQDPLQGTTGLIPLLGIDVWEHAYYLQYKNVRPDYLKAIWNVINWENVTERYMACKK
# B4: Mothers against decapentaplegic homolog 4 (Homo sapiens), Q13485 (parent)
# chain: B1 chain
# partner: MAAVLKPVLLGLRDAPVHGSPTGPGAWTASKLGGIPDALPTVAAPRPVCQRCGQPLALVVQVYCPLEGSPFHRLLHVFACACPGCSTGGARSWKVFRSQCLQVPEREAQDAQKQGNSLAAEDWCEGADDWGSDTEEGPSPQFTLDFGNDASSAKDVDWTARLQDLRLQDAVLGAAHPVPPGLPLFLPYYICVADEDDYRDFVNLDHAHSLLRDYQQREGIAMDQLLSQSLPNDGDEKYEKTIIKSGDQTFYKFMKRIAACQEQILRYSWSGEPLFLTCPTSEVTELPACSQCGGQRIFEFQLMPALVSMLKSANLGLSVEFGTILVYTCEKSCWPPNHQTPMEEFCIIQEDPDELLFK
# B5: Mothers against decapentaplegic homolog 4 (Homo sapiens), Q13485 (parent)
# chain: B1 chain
# partner: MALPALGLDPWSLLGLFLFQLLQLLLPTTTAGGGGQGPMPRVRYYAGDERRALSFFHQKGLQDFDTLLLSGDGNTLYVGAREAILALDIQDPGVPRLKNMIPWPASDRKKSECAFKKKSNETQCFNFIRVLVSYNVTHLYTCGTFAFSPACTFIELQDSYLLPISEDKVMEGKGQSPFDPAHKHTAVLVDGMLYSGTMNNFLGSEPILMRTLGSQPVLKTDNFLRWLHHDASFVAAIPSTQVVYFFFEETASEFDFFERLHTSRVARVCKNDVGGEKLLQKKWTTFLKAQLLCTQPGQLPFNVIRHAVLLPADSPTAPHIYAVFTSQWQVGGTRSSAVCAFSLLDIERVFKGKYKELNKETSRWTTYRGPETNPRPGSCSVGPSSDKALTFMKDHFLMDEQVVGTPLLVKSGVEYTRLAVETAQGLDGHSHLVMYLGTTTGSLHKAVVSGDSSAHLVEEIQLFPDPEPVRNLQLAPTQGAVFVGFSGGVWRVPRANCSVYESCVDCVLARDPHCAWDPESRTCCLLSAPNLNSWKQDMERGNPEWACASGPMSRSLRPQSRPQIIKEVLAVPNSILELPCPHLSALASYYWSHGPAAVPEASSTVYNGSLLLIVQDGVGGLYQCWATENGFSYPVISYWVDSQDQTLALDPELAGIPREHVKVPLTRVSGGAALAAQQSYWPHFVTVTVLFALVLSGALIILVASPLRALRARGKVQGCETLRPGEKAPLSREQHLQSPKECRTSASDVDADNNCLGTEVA
# B6: Mothers against decapentaplegic homolog 4 (Homo sapiens), Q13485 (parent)
# chain: B1 chain
# partner: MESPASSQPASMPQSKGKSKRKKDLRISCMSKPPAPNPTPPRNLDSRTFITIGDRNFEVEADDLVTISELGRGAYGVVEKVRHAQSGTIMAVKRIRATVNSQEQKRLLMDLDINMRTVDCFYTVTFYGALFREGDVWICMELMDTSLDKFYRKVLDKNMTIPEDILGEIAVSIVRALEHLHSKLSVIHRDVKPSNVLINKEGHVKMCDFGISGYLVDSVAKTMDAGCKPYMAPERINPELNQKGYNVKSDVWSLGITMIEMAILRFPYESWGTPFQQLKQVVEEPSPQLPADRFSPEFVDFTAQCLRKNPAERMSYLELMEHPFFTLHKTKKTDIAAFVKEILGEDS
# B7: Mothers against decapentaplegic homolog 4 (Homo sapiens), Q13485 (parent)
# chain: B1 chain
# partner: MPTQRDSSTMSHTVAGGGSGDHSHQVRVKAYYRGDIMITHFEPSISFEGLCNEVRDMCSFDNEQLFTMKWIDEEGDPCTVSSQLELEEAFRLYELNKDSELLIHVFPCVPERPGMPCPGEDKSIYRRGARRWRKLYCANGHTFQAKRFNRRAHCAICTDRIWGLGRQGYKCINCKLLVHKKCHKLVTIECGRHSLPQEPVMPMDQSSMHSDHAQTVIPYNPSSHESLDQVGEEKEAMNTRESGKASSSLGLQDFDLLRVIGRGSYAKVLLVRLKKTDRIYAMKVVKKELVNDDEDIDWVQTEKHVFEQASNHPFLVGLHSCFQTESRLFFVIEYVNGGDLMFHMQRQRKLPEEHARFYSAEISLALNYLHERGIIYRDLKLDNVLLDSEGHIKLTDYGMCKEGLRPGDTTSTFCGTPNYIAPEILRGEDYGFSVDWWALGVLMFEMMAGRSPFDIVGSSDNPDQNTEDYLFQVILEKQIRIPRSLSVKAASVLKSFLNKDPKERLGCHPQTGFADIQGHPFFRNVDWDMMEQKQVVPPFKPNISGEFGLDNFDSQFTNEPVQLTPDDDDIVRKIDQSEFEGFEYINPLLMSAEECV
# Variants of: B1
# Conditions: with nkx21_human NKX2-1, P43699
row,effect of a mutation on the interaction,Variant
1,with no effect,R361H

# Variants of: B1
# Conditions: with nkx21_human NKX2-1, P43699
# Remark: another data set of the same source
row,effect of a mutation on the interaction,Variant
1,with no effect,G386D

# Variants of: B1
# Conditions: with nkx21_human NKX2-1, P43699
# Remark: another data set of the same source
row,effect of a mutation on the interaction,Variant
1,with no effect,D351H

# Variants of: B2
# Conditions: with shc1_human SHC1, P29353
row,effect of a mutation on the interaction,Variant
1,with no effect,D351H

# Variants of: B2
# Conditions: with shc1_human SHC1, P29353
# Remark: another data set of the same source
row,effect of a mutation on the interaction,Variant
1,with no effect,G386D

# Variants of: B2
# Conditions: with shc1_human SHC1, P29353
# Remark: another data set of the same source
row,effect of a mutation on the interaction,Variant
1,with no effect,R361H

# Variants of: B2
# Conditions: with shc1_human SHC1, P29353
# Remark: another data set of the same source
row,effect of a mutation on the interaction,Variant
1,with no effect,R361C

# Variants of: B3
# Conditions: with sodm_human SOD2, P04179
row,effect of a mutation on the interaction,Variant
1,with no effect,G386D

# Variants of: B3
# Conditions: with sodm_human SOD2, P04179
# Remark: another data set of the same source
row,effect of a mutation on the interaction,Variant
1,with no effect,R361C

# Variants of: B3
# Conditions: with sodm_human SOD2, P04179
# Remark: another data set of the same source
row,effect of a mutation on the interaction,Variant
1,with no effect,R361H

# Variants of: B3
# Conditions: with sodm_human SOD2, P04179
# Remark: another data set of the same source
row,effect of a mutation on the interaction,Variant
1,with no effect,D351H

# Variants of: B4
# Conditions: with pdd2l_human PDCD2L
row,effect of a mutation on the interaction,Variant
1,with no effect,D351H

# Variants of: B4
# Conditions: with pdd2l_human PDCD2L
# Remark: another data set of the same source
row,effect of a mutation on the interaction,Variant
1,with no effect,G386D

# Variants of: B4
# Conditions: with pdd2l_human PDCD2L
# Remark: another data set of the same source
row,effect of a mutation on the interaction,Variant
1,with no effect,R361C

# Variants of: B4
# Conditions: with pdd2l_human PDCD2L
# Remark: another data set of the same source
row,effect of a mutation on the interaction,Variant
1,with no effect,R361H

# Variants of: B5
# Conditions: with sem4a_human SEMA4A
row,effect of a mutation on the interaction,Variant
1,with no effect,D351H

# Variants of: B5
# Conditions: with sem4a_human SEMA4A
# Remark: another data set of the same source
row,effect of a mutation on the interaction,Variant
1,with no effect,R361H

# Variants of: B5
# Conditions: with sem4a_human SEMA4A
# Remark: another data set of the same source
row,effect of a mutation on the interaction,Variant
1,with no effect,R361C

# Variants of: B5
# Conditions: with sem4a_human SEMA4A
# Remark: another data set of the same source
row,effect of a mutation on the interaction,Variant
1,with no effect,G386D

# Variants of: B6
# Conditions: with mp2k3_human MAP2K3, P46734
row,effect of a mutation on the interaction,Variant
1,with no effect,R361H

# Variants of: B6
# Conditions: with mp2k3_human MAP2K3, P46734
# Remark: another data set of the same source
row,effect of a mutation on the interaction,Variant
1,with no effect,R361C

# Variants of: B6
# Conditions: with mp2k3_human MAP2K3, P46734
# Remark: another data set of the same source
row,effect of a mutation on the interaction,Variant
1,with no effect,D351H

# Variants of: B6
# Conditions: with mp2k3_human MAP2K3, P46734
# Remark: another data set of the same source
row,effect of a mutation on the interaction,Variant
1,with no effect,G386D

# Variants of: B7
# Conditions: with kpci_human PRKCI
row,effect of a mutation on the interaction,Variant
1,with no effect,D351H
